What is called IC50 is the concentration that inhibits the measured activity by half. Read a high IC50 as weaker potency.

Read-outs that look alike come from different tables or passages of the source. Square brackets hold non-standard residues; d marks the D form. Ends that are not written are not given here. hArg = N=C(N)NCCCC[C@H](N)C(=O)O; Aib = CC(C)(N)C(=O)O

The target of test [1] is T1, wild-type human PTH/PTHrP receptor (hP1R-WT) (human, UniProt Q03431 27-593).
T1 construct: whole, on cells; HKRK-B28 cells express ~280,000 receptors per cell; also called PTH-1 receptor; PTH-1R
T1 sequence (looked up): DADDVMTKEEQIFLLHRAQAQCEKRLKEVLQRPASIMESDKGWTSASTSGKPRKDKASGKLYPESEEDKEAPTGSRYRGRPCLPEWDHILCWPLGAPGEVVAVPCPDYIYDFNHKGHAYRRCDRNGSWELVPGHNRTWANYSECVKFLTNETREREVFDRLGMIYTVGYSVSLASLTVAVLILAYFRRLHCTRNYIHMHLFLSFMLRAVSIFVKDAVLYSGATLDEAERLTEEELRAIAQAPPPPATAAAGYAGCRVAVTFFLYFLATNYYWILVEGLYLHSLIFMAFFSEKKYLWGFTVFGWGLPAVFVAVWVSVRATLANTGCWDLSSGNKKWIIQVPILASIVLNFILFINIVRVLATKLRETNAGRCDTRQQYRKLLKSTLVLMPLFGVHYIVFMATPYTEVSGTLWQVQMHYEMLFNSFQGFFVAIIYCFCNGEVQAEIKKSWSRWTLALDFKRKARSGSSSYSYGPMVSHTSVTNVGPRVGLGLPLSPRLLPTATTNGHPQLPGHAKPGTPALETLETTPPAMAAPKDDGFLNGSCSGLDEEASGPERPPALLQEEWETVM
Description: competition binding, 125I-[M]PTH(1-21) tracer, HKRK-B28 cells, 4 h at 4 C. As to the method: (§1) Competition Binding. Binding reactions were performed with HKRK-B28 cells or in COS-7 cells in 24-well plates. The cells were rinsed with 0.5 mL of binding buffer, and then treated successively with 100 μL binding buffer, 100 μL of binding buffer containing various amounts of unlabeled competitor ligand, and 100 μL of binding buffer containing ca. 100,000 cpm of ¹²⁵I-[M]PTH(1-21) or ¹²⁵I-[Aib^{1,3},M]PTH(1-21)} (ca. 26 fmol; final volume=300 μL). Incubations were 4 to 6 h at 4° C., at which time near equilibrium conditions were attained. Cells were then placed on ice, the binding medium was removed, and the monolayer was rinsed three times with 0.5 mL of cold binding buffer. The cells were subsequently lysed with 0.5 mL […] NaOH and counted for radioactivity. For each tracer and in each experiment, the non-specific binding was determined as the radioactivity that bound in the presence of the same unlabeled peptide at a concentration of 1 μM, and was ˜1% of total radioactivity added for each tracer. The maximum specific binding (B₀) was the total radioactivity bound in the absence of competing ligand, corrected for nonspecific binding, and for each tracer, ranged from 8% to 20% of the total radioactivity added. Nonlinear regression was used to calculate binding IC₅₀ values (see below). Scatchard transformations of homologous competition binding data derived from studies with 26 fmol of ¹²⁵I-[Aib^{1,3},M]PTH(1-21) were employed for estimations of apparent equilibrium dissociation constant (kDapps) and total number of ligand binding sites (Bₘₐₓ), assuming a single class of binding sites and equal affinities of the iodinated and non iodinated ligand.
Peptides PTH(1-34) ([Nle^{8,21}, Tyr³⁴]PTH(1-34)amide), [M]PTH(1-14) (M = Ala^{3,12}, Gln¹⁰, Har¹¹, Trp¹⁴), and [M]PTH(1-14 analogs, or C-terminally truncated derivatives thereof, containing α-aminoisobutyric acid (Aib) substitutions at the indicated positions were functionally evaluated in HKRK-B28 cells. “M” in [Aib^{1,3}, M]PTH(1-21) = Nle⁸, Gln¹⁰, Har¹¹, Ala¹², Trp¹⁴, Arg¹⁹ and Tyr²¹. The basal cAMP values (not subtracted) were 4.0 ± 0.1 pmole/well (n = 10). Peptides were based on the rat PTH sequence and were carboxy-amidated. Competition binding analyses were performed with ¹²⁵I-[M]PTH(1-21 )amide (Ala^{1,3}) as tracer for 4 h at 4° C. Data are means (±S.E.M.) Of the number of experiments indiated (n).

The target in test [2] is T1, wild-type human PTH/PTHrP receptor …. The test can be described thus: competition binding, 125I-[Aib1,3,M]PTH(1-21) tracer, COS-7 cells expressing hP1R-WT. The procedure:
as §1

Test [3] addresses T2, truncated human P1R deleted for residues (24-181) (hP1R-delNt) (human, UniProt Q03431 182-593).
T2 sequence (looked up): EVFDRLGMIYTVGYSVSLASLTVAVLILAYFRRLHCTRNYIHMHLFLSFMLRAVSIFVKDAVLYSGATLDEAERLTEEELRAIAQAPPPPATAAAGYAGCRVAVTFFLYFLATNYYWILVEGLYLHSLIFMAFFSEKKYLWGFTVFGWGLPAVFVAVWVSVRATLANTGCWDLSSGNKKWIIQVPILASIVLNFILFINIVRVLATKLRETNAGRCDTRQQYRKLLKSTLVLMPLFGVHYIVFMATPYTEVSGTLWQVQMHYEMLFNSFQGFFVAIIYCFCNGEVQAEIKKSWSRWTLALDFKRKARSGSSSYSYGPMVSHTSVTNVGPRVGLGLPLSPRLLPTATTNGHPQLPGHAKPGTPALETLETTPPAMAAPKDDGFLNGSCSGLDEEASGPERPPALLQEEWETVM
Description: cell-based or functional assay.

Test [4] deals with T1, wild-type human PTH/PTHrP receptor …. The test can be described thus: cell-based or functional assay.
Test [5] shares this target. The test can be described thus: cell-based or functional assay. This is another data set of the same source.
Test [6] addresses T2, truncated human P1R deleted for …. Description: competition binding, 125I-[Aib1,3,M]PTH(1-21) tracer, COS-7 cells expressing hP1R-delNt. The procedure: (§2) Stock solutions of EGTA/trypsin and antibiotics were from GIBCO; fetal bovine serum was from Hyclone Laboratories (Logan, Utah). […] All cells, in 24-well plates, were treated with fresh media and shifted to 33° C. for 12 to 24 h prior to assay.
as §1

Test [7] addresses T1, wild-type human PTH/PTHrP receptor …. Description: cell-based or functional assay. The source holds these as a separate data set.
In test [8] the target is T2, truncated human P1R deleted for …. Description: cell-based or functional assay. The source holds these as a separate data set.
For test [9] the target is unchanged. The test can be described thus: cell-based or functional assay. The source holds these as a separate data set.
Test [10] deals with T1, wild-type human PTH/PTHrP receptor …. The test can be described thus: cell-based or functional assay. This is another data set of the same source.
For test [11] the target is unchanged. The test can be described thus: competition binding vs 125I-[Aib1,3,M]PTH(1-21), COS-7 cells with hP1R-WT.
For test [12], the target named is T2, truncated human P1R deleted for …. Description: competition binding vs 125I-[Aib1,3,M]PTH(1-21), COS-7 cells with hP1R-delNt. As to the method:
as §2, §1

The target of test [13] is wild-type human PTH/PTHrP receptor (hP1R-WT) (human) (UniProt Q03431). The test can be described thus: cell-based or functional assay.
The target is the same in test [14]. Description: competition binding, 125I-[M]PTH(1-21) tracer, HKRK-B28 cells.

B1: [Aib^1,3,M]PTH(1-11) (peptide)
peptide: [Aib]V[Aib]EIQLMHQ[hArg]-NH2
modifications: N-terminus assumed
SMILES: CC[C@H](C)[C@H](NC(=O)[C@H](CCC(=O)O)NC(=O)C(C)(C)NC(=O)[C@@H](NC(=O)C(C)(C)N)C(C)C)C(=O)N[C@@H](CCC(N)=O)C(=O)N[C@@H](CC(C)C)C(=O)N[C@@H](CCSC)C(=O)N[C@@H](Cc1c[nH]cn1)C(=O)N[C@@H](CCC(N)=O)C(=O)N[C@@H](CCCCNC(=N)N)C(N)=O
notes: also called 682 [Aib^1,3, M]PTH (1-11); [Aib^1,3,Gln^10,Har^11]PTH(1-11)
With B1, the concentration for half-maximal inhibition (IC50) in [1] stood at 970 nM; in [2], 16000 nM; in test [6], 13000 nM. Besides, the “cAMP EC50” value in [3] came to 2 nM; in [4], 2.1 nM; in test [5] it was 4 nM. Also, the “cAMP EMax(obs.)” value in test [3] came to 220 pmole/well; in test [4], 190 pmole/well; in [5] it was 243 pmole/well.

B2: [Ala^3,12,Gln^10,Har^11,Trp^14]PTH(1-14)amide (peptide)
peptide: AVAEIQLMHQ[hArg]AKW-NH2
modifications: N-terminus assumed
SMILES: CC[C@H](C)[C@H](NC(=O)[C@H](CCC(=O)O)NC(=O)[C@H](C)NC(=O)[C@@H](NC(=O)[C@H](C)N)C(C)C)C(=O)N[C@@H](CCC(N)=O)C(=O)N[C@@H](CC(C)C)C(=O)N[C@@H](CCSC)C(=O)N[C@@H](Cc1c[nH]cn1)C(=O)N[C@@H](CCC(N)=O)C(=O)N[C@@H](CCCCNC(=N)N)C(=O)N[C@@H](C)C(=O)N[C@@H](CCCCN)C(=O)N[C@@H](Cc1c[nH]c2ccccc12)C(N)=O
notes: X = Har; also called [M]PTH(1-14); 621 [M]PTH(1-14)
On to B2, for which the IC50 in [1] amounted to 13000 nM; in test [2], 20000 nM; in test [6] it was 17400 nM. In addition, the entries for the “cAMP EC50” value in test [3], in test [4] and in test [5] were 40 nM, 49 nM and 100 nM, respectively. The results for the “cAMP EMax(obs.)” value in test [3], in [4] and in [5] were 220 pmole/well, 240 pmole/well and 270 pmole/well, respectively. Also, in test [4], the “PLC EC50” value is 4700 nM. Besides, the “PLC EMAX(obs.)” value in test [4] amounted to 3.9 foldxbasal. For the same molecule, the “cAMP EC50 in SaOS-2 cells” value in [7] was 340 nM.

Consider [Aib]V[Aib]EIQLMHQ[hArg]AKWLNSMRRVEWLRKKLQDVHNY-NH2 [[Aib^1,3,Gln^10,Har^11,Ala^12,Trp^14,Arg^19,Tyr^34]hPTH(1-34)], for which the “cAMP EC50” value in test [8] amounted to 1.9 nM.

On to [Aib]V[Aib]EIQLMHNLGKHLNSMERVEWLRKKLQDVHNY-NH2 [[Aib^1,3,Tyr^34]-hPTH(1-34)], for which the “cAMP EC50” value in [9] amounted to 43 nM; in test [10], 0.67 nM.

B3: [Aib^1,3,Gln^10]PTH(1-10) (peptide)
peptide: [Aib]V[Aib]EIQLMHQ-NH2
modifications: N-terminus assumed
SMILES: CC[C@H](C)[C@H](NC(=O)[C@H](CCC(=O)O)NC(=O)C(C)(C)NC(=O)[C@@H](NC(=O)C(C)(C)N)C(C)C)C(=O)N[C@@H](CCC(N)=O)C(=O)N[C@@H](CC(C)C)C(=O)N[C@@H](CCSC)C(=O)N[C@@H](Cc1c[nH]cn1)C(=O)N[C@@H](CCC(N)=O)C(N)=O
notes: also called 684 [Aib^1,3, M]PTH (1-10); [Aib^1,3,M]PTH(1-10)
For the molecule B3, the “cAMP EC50” value in [3] is 53000 nM; in [4], 100000 nM; in test [5] it was 16000 nM. Moreover, the “cAMP EMax(obs.)” value in test [3] came out at 84 pmole/well; in [4] it was 120 pmole/well; in [5] it was 111 pmole/well. The binding result in test [11] and in test [12] was “no binding” throughout.

B4: [Nle^8,21,Tyr^34]PTH(1-34)amide (rat sequence) (peptide)
peptide: AVSEIQLXHNLGKHLASVERXQWLRKKLQDVHNY
modifications: Nle (norleucine) at 8 and 21; C-terminal amide
notes: also called 92 PTH(1-34); 92.5 PTH(1-34)
In turn, B4 registered an IC50 in test [1] of 18 nM. In [2], this molecule yielded an IC50 of 12 nM. In addition, in test [3], the “cAMP EC50” value stood at 680 nM and the “cAMP EMax(obs.)” value was 220 pmole/well. For the same molecule, in [4], the “PLC EC50” value came to 17 nM, the “PLC EMAX(obs.)” value was 4.2 foldxbasal, the “cAMP EC50” value came to 1.4 nM and the “cAMP EMax(obs.)” value came to 240 pmole/well. The “cAMP EC50 in SaOS-2 cells” value in [7] was found to be 0.2 nM. For the same molecule, in test [5], the “cAMP EC50” value came to 2.5 nM and the “cAMP EMax(obs.)” value was 280 pmole/well. Besides, in test [12], the binding result is given as “no binding”.

B5: [Aib^5,M]PTH(1-14) (peptide)
peptide: AVAE[Aib]QLMHQ[hArg]AKW-NH2
modifications: N-terminus assumed
SMILES: CSCC[C@H](NC(=O)[C@H](CC(C)C)NC(=O)[C@H](CCC(N)=O)NC(=O)C(C)(C)NC(=O)[C@H](CCC(=O)O)NC(=O)[C@H](C)NC(=O)[C@@H](NC(=O)[C@H](C)N)C(C)C)C(=O)N[C@@H](Cc1c[nH]cn1)C(=O)N[C@@H](CCC(N)=O)C(=O)N[C@@H](CCCCNC(=N)N)C(=O)N[C@@H](C)C(=O)N[C@@H](CCCCN)C(=O)N[C@@H](Cc1c[nH]c2ccccc12)C(N)=O
In [13], B5 showed a cAMP EC50 of 66000 nM and a cAMP EMax(obs.) of 169 pmole/well. The fold reduction in affinity relative to [M]PTH(1-14) in test [14] was less than 10 fold.

On to AVSEIQLMHNLGKH-NH2 (also called 521 PTH(1-14)) [native PTH(1-14) (rat sequence, amide)], for which, in test [3], the “cAMP EC50” value is 140000 nM and the “cAMP EMax(obs.)” value came out at 110 pmole/well. In test [4], the “cAMP EC50” value was 90000 nM and the “cAMP EMax(obs.)” value amounted to 140 pmole/well. The binding result in test [12] is “no binding”.

Values taken from patent US20050026839A1 (GENERAL HOSPITAL, published 2005).
